Measured values: patent US20170022281A1 (AbbVie / Abbott, published 2017)
Where a chain is given by its changes, count along the chain named.

T1: human PRLR (Biacore antigen) (human, UniProt P16471 25-234, limits assumed)
T1 construct: The construct injected over captured antibody is not described (a soluble form is likely); also called huPRLR
T1 sequence: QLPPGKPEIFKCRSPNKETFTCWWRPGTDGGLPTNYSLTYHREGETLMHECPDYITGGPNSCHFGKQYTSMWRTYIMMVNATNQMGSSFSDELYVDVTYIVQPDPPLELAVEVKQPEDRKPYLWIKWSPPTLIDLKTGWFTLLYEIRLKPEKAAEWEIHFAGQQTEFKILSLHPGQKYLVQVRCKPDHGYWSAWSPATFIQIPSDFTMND

T2: murine PRLR (Biacore antigen) (murine, UniProt Q08501 20-229, limits assumed)
T2 construct: also called muPRLR
T2 sequence (looked up): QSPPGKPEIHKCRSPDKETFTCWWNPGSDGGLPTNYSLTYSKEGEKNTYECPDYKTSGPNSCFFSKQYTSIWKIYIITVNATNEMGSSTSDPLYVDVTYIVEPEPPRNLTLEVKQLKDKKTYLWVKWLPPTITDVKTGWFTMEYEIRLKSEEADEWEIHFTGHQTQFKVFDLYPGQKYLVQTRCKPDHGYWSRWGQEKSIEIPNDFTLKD

T3: cyno PRLR (Biacore antigen) (cyno, UniProt A0A2K5WXK1 25-234)
T3 construct: also called cyPRLR
T3 sequence: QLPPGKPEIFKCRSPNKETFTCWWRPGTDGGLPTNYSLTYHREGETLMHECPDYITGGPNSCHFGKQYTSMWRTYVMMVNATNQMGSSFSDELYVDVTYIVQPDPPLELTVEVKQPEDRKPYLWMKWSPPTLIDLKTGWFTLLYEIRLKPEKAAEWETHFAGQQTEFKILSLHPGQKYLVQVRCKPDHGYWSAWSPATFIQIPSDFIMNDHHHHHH

T4: cyno PRLR ECD-his6 protein (cyno)
T4 chain: T3 sequence

T5: human PRLR ECD-Fc fusion protein (human, UniProt P16471 25-233)
T5 construct: not shown: Fc region (captured by goat anti-human Fc)
T5 sequence: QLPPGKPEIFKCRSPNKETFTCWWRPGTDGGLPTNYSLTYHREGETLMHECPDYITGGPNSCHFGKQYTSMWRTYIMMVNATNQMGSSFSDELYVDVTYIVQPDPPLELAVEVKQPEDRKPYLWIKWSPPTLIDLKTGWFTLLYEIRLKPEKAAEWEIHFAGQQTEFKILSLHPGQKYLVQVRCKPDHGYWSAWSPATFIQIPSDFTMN

B1: chAb5 (antibody, human IgG1, kappa, V domains shown)
VH: QVQLQQPGAELVRPGTSVKLSCKASGYTFTSFWMHWVKQRPGQGLEWIGVIDPSDTYTNYNQKFKGKATLTVDTSSSTAYMQLSSLTSEDSAVYYCARGDYSNWFTYWGQGTLVTVSA
VL: DVVMTQTPLSLPVSLGDQASISCRSSQRLVHSNGNTYLHWYLQKPGQSPKLLIYKVSNRFSGVPDRFSGSGSGTDFTLKISRVEAEDLGVYFCSQSTHVPWTFGGGTKLEIKT
notes: chimeric, murine variable and human G1/kappa constant regions
B2: chAb7 (antibody, human IgG1, kappa, V domains shown)
VH: QVQLQQPGAELVMPGTSVKLSCKASGYTFTSYWIHWVKQRPGQGLEWIGEIDPSDSYTNYNQKFKGKATLTVDRSSSTAYMQLSSLTSEDSAVYYCGRSFFTNWFAYWGQGTLVTVSA
VL: B1 VL with R28S, S81N, W101F, G105S
notes: as for B1
B3: chAb6 (antibody, human IgG1, kappa, V domains shown)
VH: QVQLQQPGAELVMPGSSVKLSCKASGYTFTTYWMHWVKQRPGQGLEWIGEIDPSDSYSNYNQKFKDKATLTVDKSSSTAYMQLSSLTSEDSAVYYCARNGGLGPAWFSYWGQGTLVTVSA
VL: DIVMTQSQKFMSTTVGDRVSITCKASQYVGTAVAWYQQKPGQSPKLLIYSASNRYTGVPDRFTDSGSGTDFTLTISNLQSEDLADYFCQQYSSYPWTFGGGTKLEIKT
notes: as for B1
B4: chAb8 (antibody, human IgG1, kappa, V domains shown)
VH: EVQLQQSGPELVKPGASVKISCKASGYTFTDYNIHWVKQSHGKSLEWIGYIYPNNDGTGYNQKFKSKATLTVDNSSSTAYMEVRSLTSEDSAVYYCARGDGNYVGDMDYWGQGTSVTVSS
VL: DIQMTQSPASLSASVGETVTITCRASENIYSYLAWYQQKQGKPPQLLVYNAKTLAEGVPSRFSGGGSGTQFSLKINSLQPEDFGSYYCQHHYATPFTFGSGTKLEIKT
notes: as for B1

Biological target: T1, human PRLR (Biacore antigen)
Experiment: SPR simultaneous binding; PRLR held by surface mAb Ab21
Experimental: (§1) Running buffer was HBS-EP+ (10 mM Hepes, pH7.4, 150 mM NaCl, 3 mM EDTA, 0.05% surfactant). Assay was performed at 12° C. using Biacore T200 and CM5 sensor chips with anti-human IgG (Pierce) amine-coupled in all 4 flow cells to ˜2000 RU.
(§2) Separate test mAbs were captured in flowcells 2, 3 & 4 (flowcell 1 was reference, no test mAb). All 4 flowcells were then blocked by injection with isotype control mAb at 50 ug/ml. All 4 flowcells were then injected with antigen or buffer only (buffer only is for double referencing, done for each mAb pair individually). All 4 flowcells were then injected with 2nd test mAb at 10 ug/ml. All 4 flowcells were then regenerated with glycine, pH1.5.

| Binder | solution mAb binding, % of PRLR binding |
| --- | --- |
| B1 | -1% |
| B2 | -1% |
| B3 | -1% |
| B4 | -1% |

Biological target: T1, human PRLR (Biacore antigen)
Experiment: SPR simultaneous binding; PRLR held by surface mAb Ab19
Experimental: as §1, §2

| Binder | solution mAb binding, % of PRLR binding |
| --- | --- |
| B1 | 0% |
| B2 | -1% |
| B3 | -1% |
| B4 | -1% |

Biological target: T1, human PRLR (Biacore antigen)
Experiment: SPR simultaneous binding; PRLR held by surface mAb chAb7
Experimental: as §1, §2

| Binder | solution mAb binding, % of PRLR binding |
| --- | --- |
| B1 | 0% |
| B2 | 0% |
| B3 | 1% |
| B4 | 0% |

Biological target: T2, murine PRLR (Biacore antigen)
Experiment: SPR Biacore
Method in brief: (§3)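 Association rate, dissociation rate and dissociation constant were measured by surface plasmon resonance on a Biacore instrument. PRLR antigen was tested at 600 nM, 66.67 nM and 7.41 nM, a 3-point, 9-fold dilution series. Constants came from a 1:1 binding model fit (local Rmax, mass-transport term included) in Biacore T200 Evaluation Software.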

| Binder | Kd | koff | kon |
| --- | --- | --- | --- |
| B1 | 13.8 nM | 0.00277 s⁻¹ | 200000 M⁻¹ s⁻¹ |
| B2 | 44.9 nM | 0.00357 s⁻¹ | 79500 M⁻¹ s⁻¹ |
| B3 | 608 nM | 0.36 s⁻¹ | 591000 M⁻¹ s⁻¹ |
| B4 | 291 nM | 0.0538 s⁻¹ | 185000 M⁻¹ s⁻¹ |

Biological target: T1, human PRLR (Biacore antigen)
Experiment: SPR Biacore
Method in brief: as §3

| Binder | Kd | koff | kon |
| --- | --- | --- | --- |
| B1 | 0.558 nM | 0.000199 s⁻¹ | 356000 M⁻¹ s⁻¹ |
| B2 | 0.18 nM | 4.46e-05 s⁻¹ | 248000 M⁻¹ s⁻¹ |
| B3 | 0.469 nM | 0.000536 s⁻¹ | 1.14e+06 M⁻¹ s⁻¹ |
| B4 | 0.183 nM | 9.1e-05 s⁻¹ | 496000 M⁻¹ s⁻¹ |

Biological target: T3, cyno PRLR (Biacore antigen)
Experiment: SPR Biacore
Method in brief: as §3

| Binder | Kd | koff | kon |
| --- | --- | --- | --- |
| B1 | 0.671 nM | 0.000223 s⁻¹ | 333000 M⁻¹ s⁻¹ |
| B2 | 0.154 nM | 3.61e-05 s⁻¹ | 235000 M⁻¹ s⁻¹ |
| B3 | 0.794 nM | 0.00103 s⁻¹ | 1.3e+06 M⁻¹ s⁻¹ |
| B4 | 3.44 nM | 0.00177 s⁻¹ | 514000 M⁻¹ s⁻¹ |

Biological target: T1, human PRLR (Biacore antigen)
Experiment: SPR simultaneous binding; PRLR held by surface mAb Ab49
Experimental: as §1, §2

| Binder | solution mAb binding, % of PRLR binding |
| --- | --- |
| B1 | 7% |
| B2 | 2% |
| B3 | 0% |
| B4 | -1% |

Biological target: T1, human PRLR (Biacore antigen)
Experiment: SPR simultaneous binding; PRLR held by surface mAb Ab40
Experimental: as §1, §2

| Binder | solution mAb binding, % of PRLR binding |
| --- | --- |
| B1 | -2% |
| B2 | -2% |
| B3 | -2% |
| B4 | -2% |

Biological target: T1, human PRLR (Biacore antigen)
Experiment: SPR simultaneous binding; PRLR held by surface mAb LFA102
Experimental: as §1, §2

| Binder | solution mAb binding, % of PRLR binding |
| --- | --- |
| B1 | 102% |
| B2 | 48% |
| B3 | 90% |
| B4 | -2% |

Biological target: T1, human PRLR (Biacore antigen)
Experiment: SPR simultaneous binding; PRLR held by surface mAb chAb5
Experimental: as §1, §2

| Binder | solution mAb binding, % of PRLR binding |
| --- | --- |
| B1 | 0% |
| B2 | -1% |
| B3 | 0% |
| B4 | 0% |

Biological target: T1, human PRLR (Biacore antigen)
Experiment: SPR simultaneous binding; PRLR held by surface mAb chAb8
Experimental: as §1, §2

| Binder | solution mAb binding, % of PRLR binding |
| --- | --- |
| B1 | 7% |
| B2 | 2% |
| B3 | 0% |
| B4 | -1% |

Biological target: T1, human PRLR (Biacore antigen)
Experiment: SPR simultaneous binding; PRLR held by surface mAb chAb6
Experimental: as §1, §2

| Binder | solution mAb binding, % of PRLR binding |
| --- | --- |
| B1 | -1% |
| B2 | -1% |
| B3 | -1% |
| B4 | -1% |

Biological target: T4, cyno PRLR ECD-his6 protein
Experiment: ELISA on ECD
Method in brief: (§4)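 EC50 values derive from fitted binding curves of antibody serial dilutions (1 h) on captured PRLR. Detection used an HRP-conjugated secondary (1 h), TMB development for 3–5 min, an H₂SO₄ stop and a 450 nm read, with all steps in Tween/PBS pH 7.4 buffer.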

| Binder | EC50 |
| --- | --- |
| B1 | 0.103 nM |
| B2 | 0.118 nM |
| B3 | 0.072 nM |
| B4 | 0.191 nM |

Biological target: T5, human PRLR ECD-Fc fusion protein
Experiment: ELISA on ECD
Method in brief: as §4

| Binder | EC50 |
| --- | --- |
| B1 | 0.098 nM |
| B2 | 0.151 nM |
| B3 | 0.103 nM |
| B4 | 0.08 nM |
